± gives the uncertainty stated by the source.
B1: 1-phosphatidylinositol 4,5-bisphosphate phosphodiesterase gamma-2, residues 772 to 827; numbered along this chain, P16885 (parent)
chain: RTVKALYDYKAKRSDELSFCRGALIHNVSKEPGGWWKGDYGTRIQQYFPSNYVEDI

Variants of: B1
Experiment: abundance fitness (aPCA) (normalised: wild type 0, dead -1); higher = more abundant; growth selection in yeast, the domain comes from the species named
Details: Homo sapiens

Variant | abundance fitness
RTVKALDDYKAKRSDELSFCRGALIHNVSKEPGGWWKGDYGTRIQQYFPSNYVEDI | -0.282 ± 0.31
RTVKALLDYKAKRSDELSFCRGALIHNVSKEPGGWWKGDYGTRIQQYFPSNYVEDI | -0.077 ± 0.074
RTVKALIDYKAKRSDELSFCRGALIHNVSKEPGGWWKGDYGTRIQQYFPSNYVEDI | -0.165 ± 0.41
RTVKALCDYKAKRSDELSFCRGALIHNVSKEPGGWWKGDYGTRIQQYFPSNYVEDI | -0.118 ± 0.14
RTVKALTDYKAKRSDELSFCRGALIHNVSKEPGGWWKGDYGTRIQQYFPSNYVEDI | -0.267 ± 0.1
RTVKALADYKAKRSDELSFCRGALIHNVSKEPGGWWKGDYGTRIQQYFPSNYVEDI | 0.01 ± 0.066
RTVKALHDYKAKRSDELSFCRGALIHNVSKEPGGWWKGDYGTRIQQYFPSNYVEDI | -0.015 ± 0.45
RTVKALEDYKAKRSDELSFCRGALIHNVSKEPGGWWKGDYGTRIQQYFPSNYVEDI | -0.117 ± 0.093
RTVKALFDYKAKRSDELSFCRGALIHNVSKEPGGWWKGDYGTRIQQYFPSNYVEDI | 0.126 ± 0.1
RTVKALKDYKAKRSDELSFCRGALIHNVSKEPGGWWKGDYGTRIQQYFPSNYVEDI | 0.158 ± 0.078
RTVKALNDYKAKRSDELSFCRGALIHNVSKEPGGWWKGDYGTRIQQYFPSNYVEDI | -0.375 ± 0.29
RTVKAAYDYKAKRSDELSFCRGALIHNVSKEPGGWWKGDYGTRIQQYFPSNYVEDI | -0.195 ± 0.055
RTVKAWYDYKAKRSDELSFCRGALIHNVSKEPGGWWKGDYGTRIQQYFPSNYVEDI | -0.935 ± 0.47
RTVKARYDYKAKRSDELSFCRGALIHNVSKEPGGWWKGDYGTRIQQYFPSNYVEDI | -0.177 ± 0.074
RTVKAPYDYKAKRSDELSFCRGALIHNVSKEPGGWWKGDYGTRIQQYFPSNYVEDI | -0.691 ± 0.18
RTVKACYDYKAKRSDELSFCRGALIHNVSKEPGGWWKGDYGTRIQQYFPSNYVEDI | -0.406 ± 0.16
RTVKAEYDYKAKRSDELSFCRGALIHNVSKEPGGWWKGDYGTRIQQYFPSNYVEDI | -0.631 ± 0.12
RTVKAGYDYKAKRSDELSFCRGALIHNVSKEPGGWWKGDYGTRIQQYFPSNYVEDI | -0.721 ± 0.078
RTVKAHYDYKAKRSDELSFCRGALIHNVSKEPGGWWKGDYGTRIQQYFPSNYVEDI | -0.834 ± 0.16
RTVKANYDYKAKRSDELSFCRGALIHNVSKEPGGWWKGDYGTRIQQYFPSNYVEDI | -0.257 ± 0.088
RTVKAVYDYKAKRSDELSFCRGALIHNVSKEPGGWWKGDYGTRIQQYFPSNYVEDI | -0.356 ± 0.075
RTVKATYDYKAKRSDELSFCRGALIHNVSKEPGGWWKGDYGTRIQQYFPSNYVEDI | -0.161 ± 0.14
RTVKAIYDYKAKRSDELSFCRGALIHNVSKEPGGWWKGDYGTRIQQYFPSNYVEDI | 0.09 ± 0.16
RTVKADYDYKAKRSDELSFCRGALIHNVSKEPGGWWKGDYGTRIQQYFPSNYVEDI | -0.577 ± 0.22

Variant | abundance fitness
RTVKAFYDYKAKRSDELSFCRGALIHNVSKEPGGWWKGDYGTRIQQYFPSNYVEDI | -0.456 ± 0.35
RTVKAQYDYKAKRSDELSFCRGALIHNVSKEPGGWWKGDYGTRIQQYFPSNYVEDI | -0.485 ± 0.087
RTVKAKYDYKAKRSDELSFCRGALIHNVSKEPGGWWKGDYGTRIQQYFPSNYVEDI | 0.01 ± 0.1
RTMKALYDYKAKRSDELSFCRGALIHNVSKEPGGWWKGDYGTRIQQYFPSNYVEDI | -0.017 ± 0.1
RTCKALYDYKAKRSDELSFCRGALIHNVSKEPGGWWKGDYGTRIQQYFPSNYVEDI | -0.267 ± 0.38
RTIKALYDYKAKRSDELSFCRGALIHNVSKEPGGWWKGDYGTRIQQYFPSNYVEDI | -0.689 ± 0.26
RTVKALYRYKAKRSDELSFCRGALIHNVSKEPGGWWKGDYGTRIQQYFPSNYVEDI | -0.452 ± 0.059
RTVKALYFYKAKRSDELSFCRGALIHNVSKEPGGWWKGDYGTRIQQYFPSNYVEDI | -0.382 ± 0.24
RTVKALYNYKAKRSDELSFCRGALIHNVSKEPGGWWKGDYGTRIQQYFPSNYVEDI | -0.059 ± 0.054
RTVKALYVYKAKRSDELSFCRGALIHNVSKEPGGWWKGDYGTRIQQYFPSNYVEDI | -0.982 ± 0.2
RTVKALYGYKAKRSDELSFCRGALIHNVSKEPGGWWKGDYGTRIQQYFPSNYVEDI | -0.083 ± 0.072
RTVKALYEYKAKRSDELSFCRGALIHNVSKEPGGWWKGDYGTRIQQYFPSNYVEDI | -0.17 ± 0.09
RTVKALYMYKAKRSDELSFCRGALIHNVSKEPGGWWKGDYGTRIQQYFPSNYVEDI | -0.579 ± 0.13
RTVKALYTYKAKRSDELSFCRGALIHNVSKEPGGWWKGDYGTRIQQYFPSNYVEDI | 0.078 ± 0.095
RTVKALYSYKAKRSDELSFCRGALIHNVSKEPGGWWKGDYGTRIQQYFPSNYVEDI | -0.059 ± 0.076
RTVKALYWYKAKRSDELSFCRGALIHNVSKEPGGWWKGDYGTRIQQYFPSNYVEDI | -0.634 ± 0.18
RTVKALYAYKAKRSDELSFCRGALIHNVSKEPGGWWKGDYGTRIQQYFPSNYVEDI | 0.068 ± 0.09
RTVKALYYYKAKRSDELSFCRGALIHNVSKEPGGWWKGDYGTRIQQYFPSNYVEDI | -0.576 ± 0.1
RTVKALYCYKAKRSDELSFCRGALIHNVSKEPGGWWKGDYGTRIQQYFPSNYVEDI | -0.105 ± 0.074
RTVKALYDCKAKRSDELSFCRGALIHNVSKEPGGWWKGDYGTRIQQYFPSNYVEDI | 0.089 ± 0.17
RTVKALYDEKAKRSDELSFCRGALIHNVSKEPGGWWKGDYGTRIQQYFPSNYVEDI | -0.868 ± 0.31
RTVKALYDGKAKRSDELSFCRGALIHNVSKEPGGWWKGDYGTRIQQYFPSNYVEDI | -0.949 ± 0.11
RTVKALYDHKAKRSDELSFCRGALIHNVSKEPGGWWKGDYGTRIQQYFPSNYVEDI | -0.164 ± 0.26

Reference: the Human Domainome abundance scans (Beltran et al. 2025)
